Here are results for seven molecules from patent publication USRE39849 (CHEMOCENTRYX, dated 2007).

Experiment [1] has as its target T1, human CCX CKR with N-terminal Flag epitope, stably expressed on HEK293 cells (human, UniProt Q9NPB9 1-350).
T1 construct: also called HEK293-CCX CKR cells
T1 sequence: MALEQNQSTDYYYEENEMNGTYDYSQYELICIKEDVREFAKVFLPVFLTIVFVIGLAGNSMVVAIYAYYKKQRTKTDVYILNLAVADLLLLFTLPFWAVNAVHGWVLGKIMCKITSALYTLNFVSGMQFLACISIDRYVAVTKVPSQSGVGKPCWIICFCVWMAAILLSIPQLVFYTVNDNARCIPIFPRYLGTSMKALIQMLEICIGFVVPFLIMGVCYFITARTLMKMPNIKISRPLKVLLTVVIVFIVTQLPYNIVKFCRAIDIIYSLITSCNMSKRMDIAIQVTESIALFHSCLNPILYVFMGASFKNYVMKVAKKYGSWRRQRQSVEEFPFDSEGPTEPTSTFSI
In words: radioligand binding competition on CCX CKR stable transfectants.

Experiment [2] addresses T1, human CCX CKR with N-terminal Flag …. The experiment can be described thus: radioligand binding competition on CCX CKR stable transfectants (similar experiments, not shown).
For experiment [3] the target is unchanged. The experiment can be described thus: displacement of 125I-ELC (or 125I-TECK) from CCX CKR stable transfectants, cold chemokine at 200 nM.

B1: murine ELC (ligand, UniProt O70460 26-108, looked up)
chain: GANDAEDCCLSVTQRPIPGNIVKAFRYLLNEDGCRVPAVVFTTLRGYQLCAPPDQPWVDRIIRRLKKSSAKNKGNSTRRSPVS
notes: also called murine version of ELC
Take B1: the binding result in experiment [1] is listed as “binds”.

B2: human ELC (EBI1 ligand chemokine) (ligand, UniProt Q99731 22-98, looked up)
chain: GTNDAEDCCLSVTQKPIPGYIVRNFHYLLIKDGCRVPAVVFTTLRGRQLCAPPDQPWVERIIQRLQRTSAKMKRRSS
notes: also called MIP-3beta; MIP3beta
As to B2, the binding result in experiment [1] is recorded as “binds”.

B3: murine CTACK (ligand, UniProt Q9Z1X0 26-120, looked up)
chain: LPLPSSTSCCTQLYRQPLPSRLLRRIVHMELQEADGDCHLQAVVLHLARRSVCVHPQNRSLARWLERQGKRLQGTVPSLNLVLQKKMYSHPQQQN
notes: also called mCTACK; CCL27
The molecule B3 had a Kd in experiment [2] of about 9 nM.

B4: human TECK (thymus expressed chemokine) (ligand, UniProt O15444 24-150, looked up)
chain: QGVFEDCCLAYHYPIGWAVLRRAWTYRIQEVSGSCNLPAAIFYLPKRHRKVCGNPKSREVQRAMKLLDARNKVFAKLHHNTQTFQAGPHAVKKLSSGNSKLSSSKFSNPISSSKRNVSLLISANSGL
notes: also called soluble TECK; cold TECK
For B4, in experiment [3], the binding result is listed as “binds”.

B5: mMIP-1 gamma (murine macrophage inflammatory protein-1 gamma) (ligand, UniProt P51670 22-122, looked up)
chain: QITHATETKEVQSSLKAQQGLEIEMFHMGFQDSSDCCLSYNSRIQCSRFIGYFPTSGGCTRPGIIFISKRGFQVCANPSDRRVQRCIERLEQNSQPRTYKQ
notes: also called mMIP-1γ; CCF18
For B5, in experiment [3], the binding result is given as “binds”.

B6: murine TECK (ligand, UniProt O35903 24-144, looked up)
chain: QGAFEDCCLGYQHRIKWNVLRHARNYHQQEVSGSCNLRAVRFYFRQKVVCGNPEDMNVKRAMRILTARKRLVHWKSASDSQTERKKSNHMKSKVENPNSTSVRSATLGHPRMVMMPRKTNN
notes: also called murine version of TECK
Consider B6, for which the binding result in experiment [3] is recorded as “binds”.

B7: human SLC (secondary lymphoid-tissue chemokine) (ligand, UniProt O00585 24-134, looked up)
chain: SDGGAQDCCLKYSQRKIPAKVVRSYRKQEPSLGCSIPAILFLPRKRSQAELCADPKELWVQQLMQHLDKTPSPQKPAQGCRKDRGASKTGKKGKGSKGCKRTERSQTPKGP
notes: also called 6Ckine; soluble SLC
On to B7, for which the binding result in experiment [3] is on record as “binds”.
